These results are taken from patent publication US20260365743 (published 2026).

Holding throughout (experiment): ELISA
Experiment [1] addresses T1, hNPR2 (human, UniProt P20594).
T1 chain: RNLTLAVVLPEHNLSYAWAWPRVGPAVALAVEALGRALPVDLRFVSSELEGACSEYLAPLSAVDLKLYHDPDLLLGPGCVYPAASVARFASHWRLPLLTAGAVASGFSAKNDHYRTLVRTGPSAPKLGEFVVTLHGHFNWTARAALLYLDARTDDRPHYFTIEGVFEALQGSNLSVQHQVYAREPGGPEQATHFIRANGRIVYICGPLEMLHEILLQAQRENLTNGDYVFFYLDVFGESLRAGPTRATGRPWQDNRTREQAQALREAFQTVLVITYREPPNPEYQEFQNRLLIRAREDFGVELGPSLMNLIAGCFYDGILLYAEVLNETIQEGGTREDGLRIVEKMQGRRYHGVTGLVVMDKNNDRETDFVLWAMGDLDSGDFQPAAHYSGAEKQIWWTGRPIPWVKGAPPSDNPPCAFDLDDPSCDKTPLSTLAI

Experiment [2] deals with T2, hNPR3 (human, UniProt P17342).
T2 chain: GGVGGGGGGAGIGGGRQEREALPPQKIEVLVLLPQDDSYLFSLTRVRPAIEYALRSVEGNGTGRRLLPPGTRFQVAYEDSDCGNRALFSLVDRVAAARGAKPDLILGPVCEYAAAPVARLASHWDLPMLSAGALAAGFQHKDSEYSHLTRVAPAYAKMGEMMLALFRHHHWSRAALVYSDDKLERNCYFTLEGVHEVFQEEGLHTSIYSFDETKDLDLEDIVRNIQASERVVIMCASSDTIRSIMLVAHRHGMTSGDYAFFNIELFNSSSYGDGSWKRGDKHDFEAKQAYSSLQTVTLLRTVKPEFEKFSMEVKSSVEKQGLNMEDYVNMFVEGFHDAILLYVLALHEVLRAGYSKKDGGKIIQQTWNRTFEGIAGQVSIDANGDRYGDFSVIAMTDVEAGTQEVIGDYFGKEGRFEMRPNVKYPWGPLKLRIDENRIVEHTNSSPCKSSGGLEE

The target in experiment [3] is hNPR1 antigen (human).
hNPR1 antigen (human), sequence (chain, as listed by the source): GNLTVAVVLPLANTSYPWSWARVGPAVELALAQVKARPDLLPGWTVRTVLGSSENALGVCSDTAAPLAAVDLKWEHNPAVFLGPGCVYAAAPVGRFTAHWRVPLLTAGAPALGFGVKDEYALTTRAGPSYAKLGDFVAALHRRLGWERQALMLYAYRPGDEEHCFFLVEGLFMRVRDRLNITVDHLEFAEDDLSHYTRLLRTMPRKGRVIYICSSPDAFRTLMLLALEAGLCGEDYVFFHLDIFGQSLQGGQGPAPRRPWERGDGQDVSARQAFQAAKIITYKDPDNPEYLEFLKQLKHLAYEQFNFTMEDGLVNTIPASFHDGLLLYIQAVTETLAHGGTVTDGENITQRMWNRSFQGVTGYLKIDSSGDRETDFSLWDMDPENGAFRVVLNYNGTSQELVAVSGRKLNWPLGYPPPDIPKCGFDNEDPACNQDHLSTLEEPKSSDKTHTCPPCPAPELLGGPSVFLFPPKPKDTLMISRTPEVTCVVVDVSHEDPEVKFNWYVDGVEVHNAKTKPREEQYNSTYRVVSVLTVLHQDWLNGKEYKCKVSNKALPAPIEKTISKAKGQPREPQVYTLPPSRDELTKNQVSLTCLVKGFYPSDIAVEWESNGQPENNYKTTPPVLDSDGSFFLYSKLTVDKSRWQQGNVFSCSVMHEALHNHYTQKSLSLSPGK

B1: RC25 V (antibody, V domains shown)
VH: QVQLVQSGAEVKKPGASVKVSCKASGYTFTNSWIGWFRQAPGQGLEWIGDIYPGGGYTNYNEIFKGKATMTADTSTNTAYMELSSLRSEDTAVYYCSRGIPGYAMDYWGQGTLVTVSS
VL: DIQMTQSPSSLSASVGDRVTMSCKSSQSLLNSGDQKNYLTWYQQKPGKAPKLLIYWASTGESGVPSRFSGSGSGTDFTFTISSLQPEDIATYYCQNDYSYPWTFGQGTKVEIKR
For the molecule B1, the binding result in experiment [1], in experiment [2] and in experiment [3] was “no binding” in each case.

B2: Hu135H3L1 (antibody, V domains shown)
VH: DVKLVESGEGLVKPGGSLRLSCAASGFSISTYGMSWVRQAPGKRLEWVAYINSGGNYIYYADSVKGRFTISRDNAKNSLYLQMNSLRAEDTAVYYCTRDRTTIVVHWYFDVWGQGTTVTVSS
VL: DIQLTQSPSSLSASVGDRVTITCSASSSLNFMHWYQQKPGKSPKRWIYDTSKLASGVPSRFSGSGSGTDYTLTISSLQPEDFATYYCHQRSSTFGGGTKVEIK
As for B2, the binding result in experiment [1] and in experiment [2] was “no binding” in each case.

B3: Hu102H4L6 (antibody, V domains shown)
VH: DVKLVESGEGLVKPGGSLRLSCAASGFTFSSYAMSWVRQAPGKRLEWVAYISRGGDYIYYADSVKGRFTISRDNAKNSLYLQMNSLRAEDSAVYYCTRDQTTVVVHWYFDVWGQGTTVTVSS
VL: DIQLTQSPSSLSASVGDRVTITCSASSSINYMHWYQQKPGKSPKRWIYDTSKLASGVPSRFSGSGSGTDYTLTISSLQPEDFATYYCHQRNSYTFGGGTKVEIK
Consider B3, for which the binding result in experiment [1] and in experiment [2] was “no binding” each time.

B4: Hu128H3L1-6 (antibody, V domains shown)
VH: EVQLVQSGAEVKKPGASVKVSCKASGYTFTSYWMHWVRQAPGQGLEWMGRIDPNSGVTKYNEKFKSRVTLTVDKPSSPAYMELSSLRSEDTAVYYCARSSYLGRYFDVWGQGTTVTVSS
VL: EIVLTQSPATLSLSPGERATLKCSATSSVSYMYWYQQKPGQAPRLLIYDTYNLGSRIPARFSGSGSGTDYTLTISRLEPEDFAVYYCQQWSSYPPTFGQGTKLEIK
Turning to B4, the binding result in experiment [1] and in experiment [2] was “no binding” throughout.

B5: Hu140H5L5-11 (antibody, V domains shown)
VH: QVQLVQSGAEVKKPGASVKVSCKASGYTFTSYWMHWVRQAPGQGLEWMGRIDPNSGVTKYNEKFKSRVTLTVDKPSSPAYMELSSLRSEDTAVYYCARSGGLRRYFDVWGQGTTVTVSS
VL: EIVLTQSPATLSLSPGERAQLSCSASSSVSYMYWYQQKPGQAPRLLIYDTYNLASGVPDRFSGSGSGTSYTLTISRLEPEDFAVYYCQQWSSYPPTFGAGTKLEIK
For B5, the binding result in experiment [1] and in experiment [2] was “no binding” each time.
